# Assay results as given in the DeepSol protein solubility set.
# Assay: soluble on expression in E. coli; label from the status in PepcDB or PDB records
row,Sequence,soluble on expression in E. coli
1,MAHHHHHHMTMAVDSHDPSVRYLFFEEQRQQKQQKQQVPVDGTSSGSLPLLYSARPACHPVDDVRSAAALRRITEGFLNLDQQMKMWRRHLHRKLGNLESRLSRCESVLLQKKTPVPQPAVVKASTTTYNDIYDGVEDEFKRLHLTVTALREKAAECCRDGQSFFPPKRQGKKGKGEPAGKHAMCDDEDVSIEGGGVFDSHCEHVGVAKRMSPTADTTAVGSGESVGLTPDGAEMPSACLFLGETVVDGDWQHVEGMQPREASCCLYKLQNQSSFQPTPSFSTMTPVSEQKYFAMDSTCRHDWSPFIHEPCRPEKRIVRGGKPATMDKTPTNVPDLRMRSTATTTQEKCCEINESPLVQASSLERRLIYSPETPKRMQGQVSPVPSDAARSASSSTKRGMEIPLSNADSVEHLHNLAEPALSSKPVTNGQKRPDATPSSQHGGAFVDAFASAVAGVPSSSPLYVLPQQIYSSRGNSCDRSSEWDNTEDEEKASESSNEEVLSAVALSMPTVGTVWQRVVSLAHAEQYYDQLSRLNHPPLSMLSSDTLEISELTVQET,not soluble
2,MAHHHHHHMTMFGKIHVYKRTYEICSIILKNYFVYYHPLYLDFYLSFAWYNKGSNNEKAFLHFLREFILLQINVCSKRCREKKMEILKMNENFEHLVFSIIFKNNKEEEDNKNKYDINENVNIRRLDNYVSSSFLNDICYPHCNIYNENKNFDILKNFDFLKSNILLASSLHYFINSLFCYYNNDDFINKYKSTDFIFDSILLCIKSLESVKRTYRLSTYTEKGFGNVCLDISLMIIKLKLKHPKFLEKKDNWMLYALRNAMEAEEVTEKK,not soluble
3,MAHHHHHHMTNRGVVNAEELRGAVCAIVSRYQKTPQRRLLVCVAGRPGSGKTTIANILAEEARELLRKVSSDPRDHAENAVVVMPMDGYHLYRKTLHAMPNREEAIARRGAEWTFDARKLCRDLQAIRLPSETADKKGAPLYDDVFVPSFDHSVGDPKERDICVSGSAAIVIVEGNYLLYRGTPTWAEVNRCFDMGVFQACPAATCARRLCRRHMAAWGISEAEAMVRATGSDAMNGDLVETTGKNADIVLHSIESSI,soluble
4,MAHHHHHHMTRVLVNREDCSVQVKGDLITFLYATVAKDPLVVASRNVTQLLRSRKDDTAAKLVADGESYVLKFESLRDREGFIESIVRAQEAEQALSNDEWVASTICHAAVDVGVLDQEELRAIMSAAGQRGVEQAFDALETLVDRETFQLLPITEQMENDVLRQTPVLAAIFQERVVDKETKKSFWEAVVRKYFCFSRTFLEEDIQRLEGARSVATAASPPLSGSAATSSLSVINASSMCALPKGAATAMLDTDINEEDLLHLDENVEPLQQSFHGLFAAHRHLPVGSASVLPVNGAALPFPQETAEPSPVYRPRFVGFRVLHQLPSETIEKAALETLRTFWRSSVKQRRSILAKYTRISKKGGGGFIQRMCLEQADRAVQNT,not soluble
5,MAHHHHHHMTSGPNNTTNIYDPIEVARANPYFKRNHMGQVTCTLCGIYCPEENNFLKHIAGKTHALQLERRQHKELRHLRLQEEERLNTEAEERARKEEALLALSGGQAGSGAAGGAGALSSAAAAAANARFGTPLYSFRTEHDEVAYRTKVWIEVMFTQAEEGTRPLHRWLSAREQHVEKPPDDYFVYLLFACEGYTTVALKFPAKANRSQPRDVLEEADGSTSEAYWCSWDPLQKVYTLFFALSR,soluble
6,MAHHHHHHMTSLHPFEYAFMAGASFSPEERVQLTSSLPLLSVQTKRKNLVLWGKIFGCKADYIIVEAFDDDAVVEPELYHTLDEGRTFSLLGTFSSVFSTCPGYSSCSGLQQAEWKQFMLLGMRGPFFGDPAYEYRVSNHSSSDSAPEIQSVKESVRLALFVEEFDHECRVVPRGAYMKAERQATATIASTTGAEVDAGERAEVRRNTALADFRERRRERCRCGTTTTCVP,not soluble
7,MAHHHHHHMVENELLYENDVSNSGLDGKPRLHSFFNKDGLLLRTYSWTVKKAIGIFLLIHGLNGHVRLQYLRQNVEVISNDKAILKDQDNYYVYKDSWIEKLNDKGYSVYGIDLQGHGLSEGWENLKANINNFDDLVYDVIQYLEEINRTVCLDYERNKYLRAIREKNTDMKALKKDKIPIYIMGLSMGGNVVLRTLELLGKSGDYKNLNIKGCISLSGMICLEELSSKASMKYKYFLVPFSKFISYIFPKCRINQNFNFEMFPFVNDIINFDKHRSKKWITFKFGHQILRSITNLRKDIQYIPKDIPILFVHSIHDCACYYGGVVTFYDQLDNDKKELYTIYDMDHLLTMEPGNEKVLEKVLDWISGSFNNKRRRRRTSS,not soluble
8,MAHHHHHHMVFFFPSFFFHNHDRELSCGKVSKAFIYIKKIHKMRRVSSLKEYNSLKEEAGNGLGLVVHFSASWCEPCKNVGSMLEGYLSQYNQKVLFAEVDADLVTNVCEAENVECVPFIVFFRTSSRERAQERVADVVGGKLDHLEMNLVSLYGNGHDTRESFPDLNEYLKYLTSRKGVVAFITGTPSRPRCGFTGRLVEIFYELGIKFIYYDVWASDEVCEGLKKYSEWPTYPQVYVDGELIGGYDICSQLKESGELKAILKH,soluble
9,MAHHHHHHMYAPFAAQEGNGGMFDFFFSAAASETLCASSAGSNSNNTGIGHGGGEAANGFNAASAGPLVENNNSNDDRVGRLNFDFASFFFQGGQSGAYDDSGLDAAGRGDDGSGADARRSEHYIQRGSADAADSTGKGVLPALGFFFPEDQVAPAAAGGSLILPPTSWCVESAAGADNRYSPPQVQPQNPAAVRETAASLKGDEAAHTVAPPGAALTVLKSDPTHIAPVDQTLVQRLPCEHASSSAMDHECSLAAALAAAPSSLGLLSDEESQRTTVPLSRTSDAEEAKCDETPTRLVAGNSCPEPEARDSSVAEGVAEEDAMPAPTHSRQPPPRVPVVSLPRSSHPPGAAPAGAVVTPTPPSPRQPPAPLTVSTSTPYRPEVPLLIGPAGHDATSVALSKAIGEAEEVWAHRLDMVPITCPERRDAEMGMSCSGFTPSSSSDAVFLAEVAQLQQQTARLTEESARSVTSLQVLTSDLLRILGPHAALSSFAGEQYAGTPLVHLPWALIAVLEGLLNDDADAEEKAEGQLVAPRPSSEGVESGSSGVHDA,not soluble
10,MAHHHHHHSLAYGNINQPFSLESLPDELIPENLYQIETDSSRVFQRHQCRRLAHLLLFQLLKIAGKSTALLSQIHRTESGRPYFLDERIDFNISHSGDWVAVILDIRNEEKSAVGIDIEFPKIRNFTALMEHIAPKEEIDWFHHQQDSLNAFYRCWCLREAVLKSQGFGIVKLSNVRHFPEQQKIFSDYCPQGQLWFTDELPIYLAAFVNHQEKLPHFYEWNRESLQIKELEKYVLYEVNEG,soluble
11,MAHSAAAVPLGALEQGCPIRVEHDRRRRQFTVRLNGCHDRAVLLYEYVGKRIVDLQHTEVPDAYSGRGIAKHLAKAALDFVVEEDLKAHLTCWYIQKYVKENPLPQYLERLQP,not soluble
12,MAIDLAEVTGAKAAQERKKEQPTIANGLDKNAFMKLFLEQLKNQDPTAPMETDKIITQTAQLTQVEMQEENKKTMQEVASAMKSNKETNESLKDFQGALKDTMENLNKGMDDSLKANNALREVTALNSVSMIGKIAETDVSGANFDGNNKLSFSLFFDEKIDASKGVPAIQILNENNELVKTIPLKDYNGQKGYINFEWDGTNEKGEKVPKGNYKIKAEYNLDSHSKQYLQTRIGRGEVESVIFDKGKPMLRMGEMVLPIDSAIEFYQPDQKPLEQKLSDQKPIDQKPLDQKPQTPPKETA,not soluble
13,MAIHNRAGQPAQQSDLINVAQLTAQYYVLKPEAGNAEHAVKFGTSGHRGSAGRHSFNEPHILAIAQAIAEERAKNGITGPCYVGKDTHALSEPAFISVLEVLAANGVDVIVQENNGFTPTPAVSNAILVHNKKGGPLADGIVITPSHNPPEDGGIKYNPPNGGPADTNVTKVVEDRANALLAGGLQGVKRISLDAAMASGHVKAVDLVQPFVEGLADIVDMAAIQKAGLTLGVDPLGGSGIEYWKRIAEHYKLNLTLVNDQVDQTFRFMHLDKDGAIRMDCSSECAMAGLLALRDKFDLAFANDPDYDRHGIVTPAGLMNPNHYLAVAINYLFQHRPLWGKDVAVGKTLVSSAMIDRVVNDLGRKLVEVPVGFKWFVDGLFDGSFGFGGEESAGASFLRFDGTPWSTDKDGIIMCLLAAEITAVTGKNPQEHYNELAARFGAPSYNRLQASATSAQKAALSKLSPEMVSASTLAGDPITARLTAAPGNGASIGGLKVMTDNGWFAARPSGTEDAYKIYCESFLGEEHRKQIEKEAVEIVSEVLKNA,soluble
14,MAIKSVLFLRSNPVAPDPRVAKEAQALADAGYKVGVVAWDRTGELPKVEETPFGLVERLPIKGSFRSGLANLLPLVRFNLALLWHLIKRRSTYDAIHACDFDTVLPALVAAKLLGKKVVYDVFDFYADMLRATPGWIKSIIKKVDLRLMGWVDAVILADESRVKQIQGARPKRLTFIYNSPPIEDPFPLPPAPPPLRIAYVGLLQKERGILQVIELLRRHPEWELDLGGFGGDEEEIRRAVADLPNVRYHGRVPYEKALELMSNAHLLFATYDPSIPNHRYSSANKLFEAMAIGRPIVVARDTGMDQLVQQYALGFVVEYGNLAALEDAFARVASWDLQRFEEFSQKAQEVYVTRFAWRIMKERLIALYRKLEE,soluble
15,MAIQFIVSNKYTAEVSKQLNDSQNWVLDSGIYYEDHNNHIVSSPINSATKPQNTREEWLWIPPHCQVVVCSTSSLKSFLGCKASEDLDRVFGDHPLWLDQLRPLSNLLENSLIDLLSRAPFEQSSKRNIQSMERGNPVMNWNVMQVEEEDTRGEQRVAASSSLSSSFDWNTFLRDRCGLSEEDVAYCFRKLSRFGRVSLSRLNEDSLLRMGINDPTVIAKLLIGITEEFS,not soluble
16,MAIRVIGTGFGRTGTDSMREALTILGFGPCHHMSEVMGNEDQKRLWRALAKGAAPDWNQLFAGYASCIDWPSAHYWRDLIEFYPKARVILTYRSPESWWASFEKTILAGISQSTDQESLGLALISRQVFDGRPHDRANAIAVYEANVRAVIATVPPSRLLVHNLGDGWKPLCLHLDVPVPDKPYPNRNTTKDFQSALAQN,soluble
17,MAITQKRPVYLQLVDRIKNEVATDVLSANDQLPSVRETALQEKINPNTVAKAYKELEAQKVIRTIPGKGTFITGNTASVKNSNQNRLLADLSQVIAELIKSGVKGERIKKIVNDILGGKNAEN,soluble
18,MAKAAKRFRTPSTTRVLYVRHAHAHGRQTWGGDDNKRPLDKKGRRQAEMLVPMLLPFKPTAIYSAVPDRCQATALPLADELGLDVSVNRLFGDDAWETDPEACKKRFTDVVAQGGVPMIVGQGDIIPEMIKWFSENGTLPIDEKIKAKKGSVWVLSFHDGVFTGADYLEHHHHHH,not soluble
19,MAKDPRYVGNLPKIGIRPTIDGRRKGVRESLEETTMNMAKAVAKLLEENVFYYNGQPVECVIADTCIGGVKEAAEAAEKFAREGVGVSITVTPCWCYGTETMDMDPHIPKAVWGFNGTERPGAVYLAAVLAGYNQKGLPAFGIYGKDVQDAGDTNIPEDVKEKLIRFAKAGLAVAMMKGKSYLSIGSVSMGIAGSVVQEDFFQNYLGMRNEYVDMSEFVRRIELGIYDKEEYERALKWVKENCKVGPDNNRDGFKRTEEQKEKDWEISVKMALIARDLMVGNKKLEEMGYGEEALGRNAIVAGFQGQRQWTDYFPNGDFMETILNSSFDWNGKRAPYIFATENDNLNGISMLFGYLLTNTAQIFADVRTYWSPEAVKRVTGYTLEGRAANGIIHLINSGAAALDGTGEQTKDGKPVIKPYYELTDEDIKKCLEATQFRPASTEYFRGGGYSTDFLTKGGMPVTISRLNIVKGLGPVLQIAEGYTVDLPEEVHDVLDKRTDPTWPTTWFVPNLTGEGAFKDVYSVMNNWGANHCSISYGHIGADLITLASILRIPVNMHNVPEEKIFRPDAWSMFGTKDLEGADYRACKKLGPIYK,soluble
